B1: Gamma-crystallin C, residues 4 to 79; numbered along this chain, P07315 (parent)
chain: ITFYEDRAFQGRSYETTTDCPNLQPYFSRCNSIRVESGCWMLYERPNYQGQQYLLRRGEYPDYQQWMGLSDSIRSC
B2: Tyrosine-protein kinase Lck, residues 63 to 120; numbered along this chain, P06239 (parent)
chain: DNLVIALHSYEPSHDGDLGFEKGEQLRILEQSGEWWKAQSLTTGQEGFIPFNFVAKAN

Variants of: B1
Experiment: abundance fitness (aPCA) (normalised: wild type 0, dead -1); higher = more abundant; growth selection in yeast, the domain comes from the species named
Conditions: Homo sapiens

Abundance fitness: each site, then its substitutions
A8: T -0.016, D -0.275, M 0.013, V -0.064, P -0.312, N 0.181, I 0.001, Q 0.007, W -0.069, R -0.005, S -0.016, F -0.06, E 0.103, G 0.053, C 0.072, Y -0.101, H 0.016
D6: A -0.103, F -0.204, T 0.057, N -0.035, L 0.032, K 0.086, Y 0.032, E -0.038, V -0.164, H 0.115, G -0.009, Q 0.086, C 0.069, P -0.819, R 0.003, M 0.159, W -0.208, S -0.065
T18: R -0.168, C -0.165, L -0.023, K -0.065, F -0.014, P -0.847, I -0.031, N 0.049, G -0.006, A 0.09, Q -0.333, M -0.008, V -0.03, D 0.169, E -0.02, S 0.044
F3: R -1.18, L -0.036, V -1.08, Q -0.94, P -1, M -0.071, N -0.826, W -0.789, I -0.368, T -0.753, C -0.586, K -0.991, G -1.23, S -1.01
T17: A -0.014, S -0.061, V -0.006, M -0.124, E 0.046, N -0.24, F -0.152, Q 0.048, R 0.034, P -0.01, D -0.135, C 0.054, I -0.227, K -0.119, W -0.092, L -0.089
Q10: N -0.094, W -0.159, P -1.2, H 0.124, C 0.053, M -0.228, L -0.123, K 0.158, S -0.066, T 0.034, F -0.082, Y -0.107, G -0.002, V 0.033, A 0.065, R -0.082
G11: E -0.321, M -0.504, R -0.155, H -0.49, W -0.955, V -0.393, F -0.919, Y -0.591, N 0.162, Q -0.421, L -0.41, D -0.5, C -0.299, S -0.142
E15: P -0.072, A -0.113, K 0.165, W 0.069, H 0.066, Y -0.057, D -0.064, M -0.013, N 0.075, V -0.073, I 0.066, Q 0.026, G -0.072, S 0.005
F9: T -0.56, C 0.12, A -0.139, L 0.12, Q -0.207, V -0.628, E -0.367, W -0.028, M -0.095, S -0.617
R7: P 0.219, T -0.237, S -0.117, I -0.141, C -0.002, A -0.031, W -0.086, M -0.444, L -0.029, N 0.044, G -0.02, Q 0.013, Y -0.266, V 0.045, K -0.141, D -0.153, F -0.082
E5: L -0.334, R 0.014, V -0.107, K -0.162, D -0.008, T -0.156, M 0.097, P -0.127, G -0.124, Q -0.076, W -0.209, I 0.122
Y14: D -0.895, P -0.922, K -0.163, R -0.05, F 0.114, M 0.423, T -0.167, L -0.101, S -0.042, C -0.227, E -0.375, V -0.216, I 0.003, G -0.497, N -0.154, A -0.024, H -0.117, W 0.112, Q -0.27
I1: V -0.032, M -0.291, T -0.722, L -0.4
T2: F 0.101, V 0.049, P -0.838, L -0.15, R -0.145, E -0.473, G -0.329, Q -0.114, A -0.254, M -0.116, C -0.054, W -0.201, K -0.039, Y 0.088, N -0.002, I 0.093
Y4: A -0.989, H -0.364, F 0.333, V -1.11, N -0.631, L -0.984, W -0.094, G -0.863, R -0.99, S -0.725, E -0.848, P -1.12, K -0.862, Q -1.01
R12: V -0.039, I 0.017, M -0.043, Y -0.022, P -0.053, C -0.063, A -0.058, L -0.034, Q 0.022, S -0.033, F 0.026, T 0.024, K 0.031, E 0.066
S13: D -0.122, Y -0.271, A -0.051, Q 0.061, R 0.03, V 0.058, C -0.058, G -0.024, E -0.104, M -0.075, L -0.157, H -0.025, T -0.043, F -0.16, K 0.148, I 0.028
T16: Y 0.202, Q 0.027, F 0.084, D -0.215, P -0.342, L 0.013, W 0.012, K -0.011, H 0.007, A 0.074, V 0.031, I -0.098, R -0.078, E -0.291, G -0.089, N -0.116, C 0.003, M 0.074, S -0.034

Variants of: B2
Experiment: as above
Conditions: Homo sapiens

Abundance fitness of substitutions, site by site:
A55: R -0.019, H -0.27, K -0.154, L -0.4, V -0.021, N -0.231, I -0.084, G -0.007, C -0.141, E 0.037, Y -0.261, T -0.013, P -0.835, W -0.515, F -0.369, Q 0.04, D -0.102, M -0.12
A57: R -0.093, V -0.023, H -0.057, M -0.195, L 0.003, N -0.614, C -0.244, W -0.132, Q -0.112, Y -0.176, I -0.003, E 0.092, F -0.394, P -0.046, K -0.18, S -0.098, T 0.008, G -0.076
V54: L -0.705, W -0.754, H -0.967, M -0.715, S -0.751, I -0.416, Y -0.826, P -0.732, N -0.859, K -1.05, Q -0.901, R -0.813, T -0.45
K56: A 0.019, T -0.095, P 0.04, N 0.055, W -0.095, D -0.108, I -0.233, R -0.09, C -0.117, L -0.217, V -0.118, F -0.087, Y -0.138, Q -0.174, M -0.146, H 0.015, G -0.123, S -0.002, E 0.022
